Results taken from PMC8406658.

Tests used:
[1] = molecular target: ACE2 (angiotensin-converting enzyme II receptor), full length, expressed on U937 cells (human) (UniProt Q9BYF1); experiment: adhesion frequency assay (micropipette)
[2] = molecular target: Fc-tagged ACE2 recombinant protein (human) (UniProt Q9BYF1); experiment: BLI

Substance: SARS2-RBD^WT (receptor-binding domain of the SARS-CoV-2 spike, residues 333-527) (domain or fragment; other documents disagree on this pair)
- koff [1]: 0.0569 s⁻¹
- Kd [2]: 66.7 nM
- koff [2]: 0.0121 s⁻¹
- kon [2]: 181000 M⁻¹ s⁻¹
